Assay results taken from the supplement of paper PMC12764529.
± gives the half width of the 95% confidence interval.

Experiments:
[1] = folding stability dG unfold (combined trypsin and chymotrypsin); higher = more stable
How it was run: (§1)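 Mini-proteins designed to be under 80 residues and free of cysteine were carried in a PA-tagged cDNA display construct and digested with trypsin and with chymotrypsin. Each protease was applied at 11 threefold-diluted concentrations, alongside a no-protease condition, before sequencing. K50 came from Bayesian fitting of the sequencing counts, and unfolding free energy was obtained by comparing it with a sequence-predicted unfolded-state K50 and a shared folded-state K50, for each protease separately or for both together. Designs were retained only if their AlphaFold2 dimer inter-PAE exceeded 15.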

[2] = folding stability dG unfold from trypsin proteolysis; higher = more stable
How it was run: as §1

[3] = folding stability dG unfold from chymotrypsin proteolysis; higher = more stable
How it was run: as §1

| Sequence | folding stability dG unfold [1] | folding stability dG unfold [2] | folding stability dG unfold [3] |
| --- | --- | --- | --- |
| SMETLEIEITVKVEKDENGKIRKVSVEELKEELEKAGFKITEIEITEVTENTVKIKIKIEKPEEEEEEEESA [r9_225_TrROS_Hall] | 3.25 ± 0.55 kcal/mol | 2.97 ± 0.36 kcal/mol | 3.26 ± 0.24 kcal/mol |
| SAGGSAGGGSSITPVEVTPLPEDKYRVLIRITTYLPGGKPRTEEIEVEMPPDETAEEAAARVLSSAGGSAGG [r6_329_JUSTAS] | 0.367 ± 0.075 kcal/mol | 0.341 ± 0.044 kcal/mol | 0.29 ± 0.11 kcal/mol |
| SAMVITIHPDIPLEELAELLGFPEIEDATVEPLNEGIVPATFHIPEDPDKVILIDFNPEPDFALVLVLSSAG [r14_713_TrMRF] | 1.98 ± 0.17 kcal/mol | 1.59 ± 0.067 kcal/mol | 2.25 ± 0.038 kcal/mol |
| SAGGSAGGSAGGSGSITITYSSDGDKYSATFTVPDGTVVTVPNMSVDEAKKVAEKFLKSSAGGSAGGSAGGS [r4_383_JUSTAS] | 0.659 ± 0.095 kcal/mol | -0.389 ± 0.14 kcal/mol | 1.08 ± 0.12 kcal/mol |
| IETGEYDIEIELPAPNGYKVKVKFKFVKVDPENGKVYVEVELEVTLPGGKPIKLPLRLVMPAEEIKKFLESS [r1_371_TrMRF] | 4.64 ± 0.092 kcal/mol | 2.98 ± 0.072 kcal/mol | 4.94 ± 0.053 kcal/mol |
| SAGMIEITVEVPAEDMTEEELKELAEELARALREAGLPEDVKIVDVRVERLPDGTVRVTIKIEVKPPPSAGG [r19_87_TrROS_Hall] | 4.36 ± 0.39 kcal/mol | 4.24 ± 0.26 kcal/mol | 3.59 ± 0.44 kcal/mol |
| SAGGAPSSFSTSSDPDGTQLLVVTEPGSGKPRTVRIPPGLNEAVTIPPSRSVSSVELVRVSPASPALLSAGG [r13_122_JUSTAS] | -0.803 ± 0.14 kcal/mol | -1.16 ± 0.46 kcal/mol | -0.734 ± 0.18 kcal/mol |
| AFTITGIEVTYDPATNTVTVTATVTGPDGSTATVTLTLTLPAPPPPVTTVTRTETRTLPDGTTVTVTETFTS [r1_125_TrROS_Hall] | 3.43 ± 0.13 kcal/mol | 2.21 ± 0.037 kcal/mol | 4.09 ± 0.048 kcal/mol |
| SAGGSNVEVERHPDGHMTFTFPDEDGKDVKITIHMHPDGMYMIRVPGNNQPIYFPPGQSIEDLLKLSAGGSA [r2_338_TrROS] | 2.63 ± 0.098 kcal/mol | 2.2 ± 0.069 kcal/mol | 2.88 ± 0.032 kcal/mol |
| SAGGSPNYKINVEVEEYEPNPDNGKPYYRARIKIEWYNPENGREQTREIDFWMSPDKAEKFLKDILSAGGSA [r2_357_TrROS] | 2.22 ± 0.17 kcal/mol | 1.89 ± 0.059 kcal/mol | 2.56 ± 0.13 kcal/mol |
| SMKIVEVEVFEDPETGKLVVIVKLDGEEVVEVEEGEKVEIEVEPGDTLLVFVVDAETGEIKEEKEIKVEESA [r9_209_TrROS_Hall] | 1.11 ± 0.16 kcal/mol | 0.541 ± 0.12 kcal/mol | 1.2 ± 0.12 kcal/mol |
| SAGGWFTWDIPVKADDPKEAVDYAKEQIKNIMREHHPGMPPGMKIDDIKVEPPPNGWYWVKITIEIDPPSAG [r5_320_TrROS] | 2.29 ± 0.15 kcal/mol | 1.83 ± 0.083 kcal/mol | 2.59 ± 0.083 kcal/mol |
| SAMPVVTLKAKVTIHSDPNGIEEKEIEITVTFPDPNVGLEEAKKKAEEAIKEYAEKNGLKIELEEITIESAG [r14_190_JUSTAS] | 1.88 ± 0.09 kcal/mol | 1.19 ± 0.08 kcal/mol | 2.06 ± 0.047 kcal/mol |
| SAGGSAGGSAGYVVIPLDIDAEPGATVEITLPNGEKIEAIVEDHPDGLRSVRVGDGVILVPGSAGGSAGGSA [r18_372_TrMRF] | 0.742 ± 0.087 kcal/mol | 0.465 ± 0.032 kcal/mol | 0.827 ± 0.05 kcal/mol |
| SAGGSMITFTVTPDATVEFPDGVTVTLIPGEGKWVATAGEKEIEAPYTPLPDDTYVVTLELPEGIAASAGGS [r16_245_JUSTAS] | 0.369 ± 0.13 kcal/mol | 0.337 ± 0.046 kcal/mol | -0.101 ± 0.27 kcal/mol |
| SAGGSMTIKINGAEITDIEVRDDGTIRIKVRVTNENGEEVEVTLEIRIEPAPPVEVVHPDDPEALESAGGSA [r2_368_TrROS_Hall] | 2.73 ± 0.097 kcal/mol | 3.09 ± 0.16 kcal/mol | 2.45 ± 0.066 kcal/mol |
| SAGGSAGGSAGSLPIPISSESVSSLPESPLSVVTVKLPDGKTVVITVDLNSSSSSVTPLPSAGGSAGGSAGG [r17_369_JUSTAS] | 1.37 ± 0.051 kcal/mol | 1.61 ± 0.051 kcal/mol | 1.12 ± 0.032 kcal/mol |
| SAGGSAGGSAKKTLYKVKITKKNKNGEKIEIVVPKSEDEIKEEAKKKFGIDKIEIEPVELKSAGGSAGGSAG [r3_220_TrROS_Hall] | 0.182 ± 0.17 kcal/mol | -0.305 ± 0.16 kcal/mol | 0.466 ± 0.19 kcal/mol |
| SAGGSSMPLEVTEVKKIGDKIVITLRVPPSVGPLSLGLTIELKSKPVTITSTFDPSTTTATIEVGLSAGGSA [r2_261_JUSTAS] | 3.25 ± 0.17 kcal/mol | 2.88 ± 0.1 kcal/mol | 3.43 ± 0.18 kcal/mol |
| SAKPPKVEVKTVRVTIKVRNKDGSTYTITKEVTEVRVEVDGKTVTVTSIKITIELPPGITEVEIKIEKVSAG [r14_892_TrROS_Hall] | 4.47 ± 0.47 kcal/mol | 3.61 ± 0.49 kcal/mol | 4.84 ± 0.29 kcal/mol |
| GKYYLVNIVVVNEDNKSLVFPKVFPENDPEKVLEEIKKLLEELGFKAKKLITVFEKLPDGNVLVNAVVEVGS [r1_281_TrMRF] | 5.57 ± 0.3 kcal/mol | 3.79 ± 0.15 kcal/mol | 5.63 ± 0.25 kcal/mol |
